Experimental data reported in US20230293738A1 (Y MABS THERAPEUTICS, published 2023).
Blank lines part the entries; values can stand above or below the binder they belong to.

How the values were obtained:
[1] = molecular target: T1, human 2Ig-B7H3 (B7H3-2Ig-His) (human, UniProt Q5ZPR3 29-466); experiment: SPR; CHX-A''-DTPA conjugate, CAR 1.4, labeled with cold 175Lu
T1 construct: Recombinant His-tagged protein immobilised on a CM5 chip; also called 21g-B7H3; B7H3-21g-His; not shown: His tag
T1 sequence: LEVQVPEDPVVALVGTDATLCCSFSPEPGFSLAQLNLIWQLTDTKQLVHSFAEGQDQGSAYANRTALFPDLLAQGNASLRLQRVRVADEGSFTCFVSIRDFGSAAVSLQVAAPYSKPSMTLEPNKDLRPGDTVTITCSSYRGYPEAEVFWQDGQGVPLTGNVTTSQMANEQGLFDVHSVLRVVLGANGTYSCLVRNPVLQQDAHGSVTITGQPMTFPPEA
Procedure: (§1) Both human B7H3 41g and 21g proteins were dissolved in PBS (Phosphate-Buffered Saline) to make 0.1 mg/ml stock solution and stored in −80° C. B7-H3 proteins were immobilized onto the CM5 sensor chip using Amine Coupling Kit. Both proteins were diluted to 10 ug/ml with 10 mM Sodium acetate, pH 5.0. […] A blank immobilized surface was used as a control
(§2) Binding Assays: [0143] 1. Antibodies were diluted in HBS-EP buffer (10 mM HEPES, 150 mM NaCl, 3 mM EDTA, 0.05% Surfactant P20, pH 7.4) at varying concentrations (25-50-100-200-400 nM) prior to analysis. […] 2. Samples (60 ul) were injected over the sensor surface at a flow rate of 30 ul/min over 2 min. [0145] 3. Following completion of the association phase, dissociation was monitored in HBS-EP buffer for 10 min at the same flow rate. […] 4. At the end of each cycle, the surface was regenerated using 10 mM NaOH at a flow rate of 50 ul/min over 2×15 sec.

[2] = molecular target: T2, human 4Ig-B7H3 (B7H3-4Ig-His) (human, UniProt Q5ZPR3 29-466); experiment: SPR
T2 construct: Recombinant His-tagged protein immobilised on a CM5 chip; also called 41g-B7H3; human 4Ig-B7-H3 (dominant isoform); not shown: His tag
T2 sequence: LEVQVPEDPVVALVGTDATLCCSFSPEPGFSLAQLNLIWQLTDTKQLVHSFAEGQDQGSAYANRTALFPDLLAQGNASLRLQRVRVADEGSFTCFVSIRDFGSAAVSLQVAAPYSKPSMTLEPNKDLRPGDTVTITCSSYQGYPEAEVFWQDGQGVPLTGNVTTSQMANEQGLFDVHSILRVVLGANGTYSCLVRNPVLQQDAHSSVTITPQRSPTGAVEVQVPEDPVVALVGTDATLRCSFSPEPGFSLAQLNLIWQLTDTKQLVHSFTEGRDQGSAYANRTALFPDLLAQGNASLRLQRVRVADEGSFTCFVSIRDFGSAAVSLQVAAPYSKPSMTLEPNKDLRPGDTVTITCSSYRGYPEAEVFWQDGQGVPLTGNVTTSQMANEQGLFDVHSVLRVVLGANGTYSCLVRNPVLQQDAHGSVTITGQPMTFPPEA
Procedure: as §1
(§3) The data were analyzed by the 1:1 fitting model and default parameter setting for the rate constants using the Biacore T200 Evaluation Software, and the apparent association on rate constant (kon, ka), dissociation off rate constant (koff, kd) and equilibrium dissociation constant (KD=kd/ka) were calculated.

[3] = molecular target: T1, human 2Ig-B7H3 (B7H3-2Ig-His); experiment: SPR
Procedure: as §1, §3

[4] = molecular target: T2, human 4Ig-B7H3 (B7H3-4Ig-His); experiment: SPR, Biacore T200, 4Ig-B7H3-His on CM5 chip, 1:1 fit
Procedure: as §1, §3

[5] = molecular target: T1, human 2Ig-B7H3 (B7H3-2Ig-His); experiment: SPR, Biacore T200, 2Ig-B7H3-His on CM5 chip, 1:1 fit
Procedure: as §1, §3

[6] = molecular target: T1, human 2Ig-B7H3 (B7H3-2Ig-His); experiment: SPR, Biacore T200, 2Ig-B7H3-His on CM5 chip, 1:1 fit; 127I-labeled 8H9, lot P76501A
Procedure: as §1, §2

[7] = molecular target: T1, human 2Ig-B7H3 (B7H3-2Ig-His); experiment: SPR; 127I-labeled 8H9
Procedure: as §1, §2

[8] = molecular target: T1, human 2Ig-B7H3 (B7H3-2Ig-His); experiment: SPR; CHX-A''-DTPA conjugate, CAR 3, labeled with cold 175Lu
Procedure: as §1, §2

[9] = molecular target: T1, human 2Ig-B7H3 (B7H3-2Ig-His); experiment: SPR; CHX-A''-DTPA conjugate, CAR 3.6, labeled with cold 175Lu
Procedure: as §1, §2

[10] = molecular target: T2, human 4Ig-B7H3 (B7H3-4Ig-His); experiment: SPR, Biacore T200, 4Ig-B7H3-His on CM5 chip, 1:1 fit; remark: listed apart in the source
Procedure: as §1, §2

[11] = molecular target: T1, human 2Ig-B7H3 (B7H3-2Ig-His); experiment: SPR, Biacore T200, 2Ig-B7H3-His on CM5 chip, 1:1 fit; CHX-A''-DTPA conjugate, CAR 6.1, unlabeled
[12] = molecular target: T2, human 4Ig-B7H3 (B7H3-4Ig-His); experiment: SPR; remark: listed apart in the source
Procedure: as §1, §2

[13] = molecular target: T1, human 2Ig-B7H3 (B7H3-2Ig-His); experiment: SPR; remark: listed apart in the source
Procedure: as §1, §2

[14] = molecular target: T1, human 2Ig-B7H3 (B7H3-2Ig-His); experiment: SPR, Biacore T200, 2Ig-B7H3-His on CM5 chip, 1:1 fit; remark: listed apart in the source
Procedure: as §1, §2, §3

[15] = molecular target: T1, human 2Ig-B7H3 (B7H3-2Ig-His); experiment: SPR, Biacore T200, 2Ig-B7H3-His on CM5 chip, 1:1 fit; DOTA conjugate, CAR 11.7, unlabeled
[16] = molecular target: T1, human 2Ig-B7H3 (B7H3-2Ig-His); experiment: SPR, Biacore T200, 2Ig-B7H3-His on CM5 chip, 1:1 fit; CHX-A''-DTPA conjugate, CAR 3.6, unlabeled

Kd [1]: < 0.316 nM | Kd [2]: 7.64 nM | t ½ [2]: 1.26 h | t ½ [3]: 28.1 h | Kd [4]: 7.64 nM | t ½ [4]: 1.26 h | Kd [5]: 0.217 nM | t ½ [5]: 28.1 h
B1: 175Lu-DTPA-8H9-antibody (CAR1.4) (antibody, mouse IgG1, kappa, V domains shown)
VH: QVQLQQSGAELVKPGASVKLSCKASGYTFTNYDINWVRQRPEQGLEWIGWIFPGDGSTQYNEKFKGKATLTTDTSSSTAYMQLSRLTSEDSAVYFCARQTTATWFAYWGQGTLVTVSA
VL: DIVMTQSPATLSVTPGDRVSLSCRASQSISDYLHWYQQKSHESPRLLIKYASQSISGIPSRFSGSGSGSDFTLSINSVEPEDVGVYYCQNGHSFPLTFGAGTKLELKR
modifications: p-SCN-Bn-CHX-A″-DTPA conjugated (CAR 1.4 per antibody), labelled with cold lutetium-175; sites not stated

Kd [6]: < 0.0787 nM | Kd [7]: < 0.0787 nM | Kd [2]: 0.666 nM | t ½ [2]: 4.39 h | t ½ [3]: 308 h | Kd [4]: 0.666 nM | t ½ [4]: 4.39 h | t ½ [5]: 308 h
B2: 127I-8H9-antibody P76501A (antibody, mouse IgG1, kappa, V domains shown)
VH: B1 VH
VL: B1 VL
modifications: labelled with iodine-127; sites not stated

Kd [8]: 1.8 nM | Kd [2]: 16.2 nM | t ½ [2]: 0.811 h | t ½ [3]: 5.94 h | Kd [4]: 16.2 nM | t ½ [4]: 0.811 h | Kd [5]: 1.8 nM | t ½ [5]: 5.94 h
B3: 175Lu-DTPA-8H9-antibody (CAR3) (antibody, mouse IgG1, kappa, V domains shown)
VH: B1 VH
VL: B1 VL
modifications: p-SCN-Bn-CHX-A″-DTPA conjugated (CAR 3 per antibody), labelled with cold lutetium-175; sites not stated

Kd [2]: 18.5 nM | t ½ [2]: 0.722 h | t ½ [3]: 5 h | Kd [4]: 18.5 nM | t ½ [4]: 0.722 h | Kd [9]: 2.34 nM | Kd [5]: 2.34 nM | t ½ [5]: 5 h
B4: 175Lu-DTPA-8H9-antibody (CAR3.6) (antibody, mouse IgG1, kappa, V domains shown)
VH: B1 VH
VL: B1 VL
modifications: p-SCN-Bn-CHX-A″-DTPA conjugated (CAR 3.6 per antibody), labelled with cold lutetium-175; sites not stated

Kd [10]: 53.8 nM | t ½ [10]: 0.215 h | Kd [11]: 24.3 nM | Kd [12]: 53.8 nM | t ½ [12]: 0.215 h | t ½ [13]: 0.394 h | T ½ [14]: 0.394 h
B5: 8H9 antibody conjugated with p-SCN-Bn-CHX-A″-DTPA, CAR 6.1 (antibody, mouse IgG1, kappa, V domains shown)
VH: B1 VH
VL: B1 VL
modifications: p-SCN-Bn-CHX-A″-DTPA conjugated, CAR 6.1 per antibody; sites not stated
notes: Chelator conjugate, not metal-labelled

Kd [15]: 2.99 nM | Kd [10]: 18.9 nM | t ½ [10]: 0.756 h | T ½ [14]: 3.72 h
B6: 8H9 antibody conjugated with p-SCN-Bn-DOTA, CAR 11.7 (antibody, mouse IgG1, kappa, V domains shown)
VH: B1 VH
VL: B1 VL
modifications: p-SCN-Bn-DOTA conjugated, CAR 11.7 per antibody; sites not stated
notes: as for B5

Kd [10]: 26.9 nM | t ½ [10]: 0.508 h | Kd [12]: 26.9 nM | t ½ [12]: 0.508 h | t ½ [13]: 1.25 h | T ½ [14]: 1.25 h | Kd [16]: 9.46 nM
B7: 8H9 antibody conjugated with p-SCN-Bn-CHX-A″-DTPA, CAR 3.6 (antibody, mouse IgG1, kappa, V domains shown)
VH: B1 VH
VL: B1 VL
modifications: p-SCN-Bn-CHX-A″-DTPA conjugated, CAR 3.6 per antibody; sites not stated
notes: as for B5
